Data set [1] deals with the molecule itself. Description: crystal structure; AALALL form 1: batch, peptide in water, acetonitrile and TFA about 45:45:10; needle crystals; 1.12 Å.
Data set [2] deals with the molecule itself. Description: crystal structure; GSQASS 100 mg/mL in water, hanging drop, 20 °C, 1.0 M Na,K tartrate, 0.2 M Li2SO4, Tris pH 7.0; needle crystals; 1.30 Å.
Data set [3] concerns the molecule itself. The data set can be described thus: crystal structure; GQTVTK 68 mg/mL in water, hanging drop, 20 °C, 2.0 M (NH4)2SO4, 0.1 M sodium HEPES pH 7.5, 2% v/v PEG 400; 1.10 Å.

B1: NCAP steric zipper segment 217AALALL222 (peptide)
peptide: AALALL
notes: Nucleocapsid protein (NCAP) of SARS-CoV-2, residues 217-222, within the central LCD; also called H-AALALL-OH
For B1, the binding result in data set [1] is listed as “binds”.

B2: NCAP steric zipper segment 179GSQASS184 (peptide)
peptide: GSQASS
notes: Nucleocapsid protein (NCAP) of SARS-CoV-2, residues 179-184, within the central LCD; non-phosphorylated peptide
B2: the binding result in data set [2] is given as “binds”.

B3: NCAP steric zipper segment 243GQTVTK248 (peptide)
peptide: GQTVTK
notes: Nucleocapsid protein (NCAP) of SARS-CoV-2, residues 243-248, within the central LCD
With B3, the binding result in data set [3] is given as “binds”.
